{"source": "the nanobody polyreactivity screen of Harvey et al. (2022)", "assay": "yeast display, Sf9 membrane polyspecificity reagent, FACS + sequencing; frameworks hold sequencing errors", "outline": "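In a synthetic yeast display library (Saccharomyces cerevisiae BJ5465), nanobody expression was induced with galactose for 36–48 hours. FACS gates were set low and high (top ~1%) using anti-HA fluorescence for expression and streptavidin fluorescence for binding of the Sf9 membrane reagent. Each polyreactivity label is drawn from the gate of origin.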", "data": [{"sequence": "QVQLVESGGGLVQAGGSLRLSCAASGRTFTVNRMGWYRQAPGKERELVAGITLRGANTYYADSVKGRFTISRDNAKNTVYLQMNSLKPEDTAVYYCNDDVKYRYNHWGQGTQVTVSS", "values": [{"measurement": "polyreactivity (PSR sort gate)", "result": "high polyreactivity"}]}, {"sequence": "QVQLVESGGGLVQAGGSLRLSCAASGSIFHYYAMGWYRQATGKERELVAAISTSGGSTYYADSVKGRFTISRDNAKNTVYLQMNSLKPEDTAVYYCNAVYYYFPVGDDEYWGQGTQVTVSS", "values": [{"measurement": "polyreactivity (PSR sort gate)", "result": "high polyreactivity"}]}, {"sequence": "QVQIVESGGGLVQAGGSLRLSCAASGRTFNGYAMGWYRQAPGKERELVARITYRGGGTYYADSVKGRFTISRDNAKNTVYLQMNSLKPEDTAVYYCNAVYHSSGRMGYWGQGTQVTLSS", "values": [{"measurement": "polyreactivity (PSR sort gate)", "result": "high polyreactivity"}]}, {"sequence": "QVQLVESGGGLVQAGGSLRLSCAASGFIFSWYAMGWYRQAPGKERELVAAISHDGGSTYYADSVKGRFTISRDNAKNTVYLQMNSLKAEDTAVYYCAAPLRALSQRMGYWGQGTQVTVSS", "values": [{"measurement": "polyreactivity (PSR sort gate)", "result": "high polyreactivity"}]}, {"sequence": "QVQLVESGGGLVQAGGSLRLSCAASGFTFSRYAMGWYRQAPGTERELVAAITSRGGSTYYADSVKGRFTISRDNAKNTVYLQMNSLKPEDTAVYYCAASGRNRKDGLYEYYYWGQGTQVTVSS", "values": [{"measurement": "polyreactivity (PSR sort gate)", "result": "high polyreactivity"}]}, {"sequence": "QVQLVESGGGLVQAGGSLRLSCAASGSTFAAYAKGWYRQAPGKERELVAAISRSGGTTYYADSVKGRFTISRDNAKNTVYLQMNSLKPEDTAVYYCAAEQWYDNYLEYDYWGQGTQVTVSS", "values": [{"measurement": "polyreactivity (PSR sort gate)", "result": "high polyreactivity"}]}, {"sequence": "QVQLVESGGGLVQAGGSLRLSCAASGRTFTHYAMGWYRQAPGKERELVAAISSGGGTYYADSVKGRFTISRDNAKNTVYLQMNSLKPEDTAVYYCNADYTNYHDPFRTYGYWGQGTQVTVSS", "values": [{"measurement": "polyreactivity (PSR sort gate)", "result": "low polyreactivity"}]}, {"sequence": "QVHLVESGGGLVQAGGSLRLSCAASGRIFNSYAMGWYRQAPGKERELVAAISRNGGITYYADSVKGRFTISRDNAKNTVYLQMNSLKPEDTAVYYCNADCSRRRYSSDYWGQGTQVTVSS", "values": [{"measurement": "polyreactivity (PSR sort gate)", "result": "high polyreactivity"}]}, {"sequence": "QVQLVESGGGLVQAGGSLRLSCAASGIIFYYNAMGWYRQAPGKERELVATIRWRGGSTYYADSVKGRFTISRDNAKNTVYLQMNSLKPEDTAVYYCNKSYDNSSDSDYWGQGTQVTVSS", "values": [{"measurement": "polyreactivity (PSR sort gate)", "result": "low polyreactivity"}]}, {"sequence": "QVQLVESGGGLVQAGGSLRLSCAASGITFYDYAMGWYRQAPGKERELVAAISFSGSRTYYADSVKGRFTISRDNAKNTVYLQMNSLKPEDTAVYYCAASPSTPNKYGSWGQGTQVTVSS", "values": [{"measurement": "polyreactivity (PSR sort gate)", "result": "high polyreactivity"}]}, {"sequence": "QVQLVESGGGLVQAGGSLRLSCAASGRTFYGYAMGWYRQPPGKERELVATISGSGGTTYYADSVKGRFTISRDNAKNTVYLQMNSLKPEDTAVYYCAADRYLYFYWWPHVGGSPTYGYWGQGTQVTVSS", "values": [{"measurement": "polyreactivity (PSR sort gate)", "result": "high polyreactivity"}]}, {"sequence": "QVQLVESGGGLVQAGGSLRLSCAASGRTFGRNAMGWYRQAPGKERELVAAISTSGSRTYYADSVKGRFTISRDNAKNTVYLQMNSLKPEDTAVYYCNAYGVSRGSYGTRGYWGQGTQVTVSS", "values": [{"measurement": "polyreactivity (PSR sort gate)", "result": "high polyreactivity"}]}, {"sequence": "QVQLVETGGGLVQAGGSLRLSCAASGITFAYNTMGWYIQAPGKERELVAGISFSGASTYYADSVKGRFTISRDYAKNTVYLQMNSLKPEDTAVYDCAAPRWVANQYREYDYWGQGTQVTVSS", "values": [{"measurement": "polyreactivity (PSR sort gate)", "result": "high polyreactivity"}]}, {"sequence": "QDQLVESRGGLVQAGGSLRLSCAASGFTFGRYAMGWYRQAPGKERELVAVITSSGGRTYYADSVKGRFTISRDNAKNTVYLQMNSLKPEDTAVYYCHKYPLRLYGYDYWGQGTQVTVSS", "values": [{"measurement": "polyreactivity (PSR sort gate)", "result": "high polyreactivity"}]}, {"sequence": "QVQLVESGGGLVQAGGTLRLSCAASGRTFKKYTMGWYRQAPGKERELVAVITSGGSTYYADSVKGRFTISRDNAKNTVYLQMNSLKPEDTAVYYCAVKYPELRTWGYYYWGQGTQVTVSS", "values": [{"measurement": "polyreactivity (PSR sort gate)", "result": "high polyreactivity"}]}, {"sequence": "QVQLVDSGGGLVQAGGILRLSCAASGSTFDVYAIGWYRQAPGKEWELVAAITWDGDRTYYADSVKGRFTISRDNAKNTVYLQMNSLKPEDTGVYYCNADEGGNYREDYWGQGTQVTVSS", "values": [{"measurement": "polyreactivity (PSR sort gate)", "result": "low polyreactivity"}]}, {"sequence": "QVQLVESGGGLVQAGGSLRISCAASGRILYLNAMGWYRQAPGIEREFVAAISKSGGTTYYADSVKGRFTISRDKAKHTDYLQMNSLKPEDTAVFYCAVDIVRCGRDSWGQGTQVTVSS", "values": [{"measurement": "polyreactivity (PSR sort gate)", "result": "low polyreactivity"}]}]}
